{"source": "patent US20230295310A1", "about": "(ABCELLERA BIOLOGICS, published 2023)", "binders": {"B1": {"name": "mAb 94 (antibody, V domains shown)", "VH": "QVHLVESGGGVVQPGRSLRLSCSASGFTFSGYGMHWVRQAPGKGLEWVALIYFDGRNKYYADSVKGRFTISRDNSKNTLYLQMNSLRAEDTAVYYCARGGGYNWFDPWGQGTLVTVSS", "VL": "DIQMTQSPSSLSASVGDRVTITCRASQSISNYLNWYQQKPGKAPKLLIYLASSLQSGVPSRFSGSGSGTDFTLTINSLQPEDFASYYCQLSYSSPFTFGPGTKVDVN"}, "B2": {"name": "mAb 96 (antibody, V domains shown)", "VH": "B1 VH with V2A, A49S", "VL": "B1 VL with S30N, N34S, S53N, S65N, N76S, S85T, S93R, N107K"}, "B3": {"name": "mAb 98 (antibody, V domains shown)", "VH": "B1 VH with G10D", "VL": "B1 VL with S30N, N76S, F83L, S85T, N107K"}, "B4": {"name": "mAb 102 (antibody, V domains shown)", "VH": "QVQLVESGGGVVQPGRSLRLSCAASGFSFRSYGMHWVRQAPGKGLEWVSVISYDGGNKYYADSVKGRFTISRDNSKNTLFLQMKSLRAEDTALYYCAKGGGTYWRGLFEYWGQGTLVTVSS", "VL": "DIQLTQSPSFLSASVGDRVTITCRASQGISSYLAWYQKKPGKAPKLLIYAASTLHSGVPSRFSGGGSGTAFTLTISSLQPEDFATYYCQQLNNYPFTFGPGTKVDIK"}, "B5": {"name": "mAb 106 (antibody, V domains shown)", "VH": "QVQLVESGGGVVQPGRSLRLSCAASGFTFRSYGMHWVRQAPGKGLEWVAIIWYNGNKKDYVDSVKGRFTISRDNSKNTLYLQMNSLRAEDTALYYCARGPGYNWFDPWGQGTLVTVSS", "VL": "DIQMTQSPPSLSASVGDRVTITCRASQRISSYLNWYQQKPGKAPKLLIYAASSLQSGVPSRFSGSGSGTDFTLTISSLQPEDFATYYCQQSDSFPLTFGGGTKVEII"}, "B6": {"name": "mAb 110 (antibody, V domains shown)", "VH": "B5 VH with T78M", "VL": "B5 VL with K39R, S91T"}, "B7": {"name": "mAb 111 (antibody, V domains shown)", "VH": "EVQLVESGGVLVKTGGSLRLSCVASGFSFKKAWMNWVRQAPGKGLEWVGRIKRNSDGGAADYAAPVKDRFTLSRDDSKNTLYLQMNSLKTEDTAVYYCTTLDSSSWYVGYYYMDVWGKGTTVTVSS", "VL": "DIHMTQSPSSVSASLGDRVTFTCRASQNINNWLAWYQQKPGKAPKLLIYTASSLQSGVPSRFSGSGSGTDFTLTISSLQPDDFATYYCQQAHSLPITFGQGTRLGIK"}, "B8": {"name": "mAb 112 (antibody, V domains shown)", "VH": "B7 VH with V10G, L18H, A59T, A60T, D68G, T71I", "VL": "B7 VL with H3Q, L15V, F21I, N28D, L46I, S53N, D81E, Y87F, G105E"}, "B9": {"name": "mAb 113 (antibody, V domains shown)", "VH": "B7 VH with V10G, S55T, A59T, A60T, D68G", "VL": "B7 VL with H3Q, L15V, F21I, N28D, L46I, D81E, G105E"}}, "note": "Numbering of substitutions follows the chain as printed.", "data": [{"target": "T1, human CD3 expressed on cells (human, UniProt P07766 23-207; P04234 22-171; P09693 23-182)", "T1 construct": "whole, on cells; CD3 complex on Jurkat cells and on human primary T cells", "T1 sequence (P07766 23-207, chain 1 of 3)": "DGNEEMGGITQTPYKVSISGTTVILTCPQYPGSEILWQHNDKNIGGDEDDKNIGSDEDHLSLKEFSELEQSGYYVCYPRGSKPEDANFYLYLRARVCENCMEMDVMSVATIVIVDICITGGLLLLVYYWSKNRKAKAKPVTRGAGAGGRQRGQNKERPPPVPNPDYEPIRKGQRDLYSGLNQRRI", "T1 sequence (P04234 22-171, chain 2 of 3)": "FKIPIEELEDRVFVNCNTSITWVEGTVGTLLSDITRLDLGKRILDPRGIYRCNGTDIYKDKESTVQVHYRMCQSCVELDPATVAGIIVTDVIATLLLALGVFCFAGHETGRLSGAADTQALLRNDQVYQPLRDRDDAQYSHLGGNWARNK", "T1 sequence (P09693 23-182, chain 3 of 3)": "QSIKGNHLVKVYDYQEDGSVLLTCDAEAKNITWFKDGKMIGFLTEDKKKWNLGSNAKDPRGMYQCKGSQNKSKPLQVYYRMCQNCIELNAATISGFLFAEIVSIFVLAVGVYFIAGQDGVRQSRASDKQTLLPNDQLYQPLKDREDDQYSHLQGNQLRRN", "assay": "flow cytometry, 25 nM", "in_short": "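Binding readout: MFI divided by isotype-control MFI (fold over isotype), positive at ≥10. Cells were stained with 25 nM antibody, 30 min, 4° C, in PBS/2% FBS before flow cytometry.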", "units": {"Human primary T Cell Binding (FOI)": "FOI", "Jurkat Cell Binding (FOI)": "FOI"}, "values": [{"binder": "B1", "Human primary T Cell Binding (FOI)": 174, "Jurkat Cell Binding (FOI)": 170}, {"binder": "B2", "Human primary T Cell Binding (FOI)": 189, "Jurkat Cell Binding (FOI)": 174}, {"binder": "B3", "Human primary T Cell Binding (FOI)": 174, "Jurkat Cell Binding (FOI)": 181}, {"binder": "B4", "Human primary T Cell Binding (FOI)": 98.9, "Jurkat Cell Binding (FOI)": 101}, {"binder": "B5", "Human primary T Cell Binding (FOI)": 210, "Jurkat Cell Binding (FOI)": 186}, {"binder": "B6", "Human primary T Cell Binding (FOI)": 214, "Jurkat Cell Binding (FOI)": 197}, {"binder": "B7", "Human primary T Cell Binding (FOI)": 168, "Jurkat Cell Binding (FOI)": 160}, {"binder": "B8", "Human primary T Cell Binding (FOI)": 174, "Jurkat Cell Binding (FOI)": 158}, {"binder": "B9", "Human primary T Cell Binding (FOI)": 173, "Jurkat Cell Binding (FOI)": 157}]}, {"target": "T2, cynomolgus monkey CD3 expressed on primary T cells (cynomolgus monkey, UniProt Q95LI5 22-198; Q95LI8 22-171; Q95LI7 23-181)", "T2 construct": "whole, on cells; CD3 complex on purified cynomolgus monkey T cells; also called cyno CD3", "T2 sequence (Q95LI5 22-198, chain 1 of 3)": "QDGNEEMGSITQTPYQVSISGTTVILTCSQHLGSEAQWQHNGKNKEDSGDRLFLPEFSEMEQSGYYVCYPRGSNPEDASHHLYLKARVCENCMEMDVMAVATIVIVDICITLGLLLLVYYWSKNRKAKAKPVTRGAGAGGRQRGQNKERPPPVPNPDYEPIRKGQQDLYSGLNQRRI", "T2 sequence (Q95LI8 22-171, chain 2 of 3)": "as the sequence (P04234 22-171, chain 2 of 3) above, with I5V, N15K, I20V, S32T, D33N, I34N, T64A, S74N, V83L, H141R counted along it", "T2 sequence (Q95LI7 23-181, chain 3 of 3)": "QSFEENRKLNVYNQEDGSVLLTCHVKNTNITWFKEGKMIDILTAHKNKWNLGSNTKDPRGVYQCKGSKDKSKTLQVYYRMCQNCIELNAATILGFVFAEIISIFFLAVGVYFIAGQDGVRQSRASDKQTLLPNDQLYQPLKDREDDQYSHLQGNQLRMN", "assay": "flow cytometry, 25 nM, cyno primary T cells", "procedure": "Purified antibodies were confirmed to bind CD3 expressed on cells using the CytoFLEX S or LX flow cytometers (Beckman Coulter). Antibodies were diluted to 25 nM in FACS buffer (PBS+2% FBS) and were incubated with CD3-expressing cells for 30 minutes at 4° C. […] The median fluorescence intensity of the binding signal for each antibody was normalized to the isotype control to obtain a fold over isotype value. An antibody with a fold over isotype (FOI) of ≥10 was considered to be positive for binding.", "values": [{"binder": "B1", "binding result": "no binding (tested: FOI >=10 = positive)"}, {"binder": "B2", "binding result": "no binding (tested: FOI >=10 = positive)"}, {"binder": "B3", "binding result": "no binding (tested: FOI >=10 = positive)"}, {"binder": "B4", "binding result": "no binding (tested: FOI >=10 = positive)"}, {"binder": "B5", "binding result": "no binding (tested: FOI >=10 = positive)"}, {"binder": "B6", "binding result": "no binding (tested: FOI >=10 = positive)"}, {"binder": "B7", "binding result": "no binding (tested: FOI >=10 = positive)"}, {"binder": "B8", "binding result": "no binding (tested: FOI >=10 = positive)"}, {"binder": "B9", "binding result": "no binding (tested: FOI >=10 = positive)"}]}]}
